According to patent publication US20240101668A1 (WUGEN, published 2024):
Substitutions are numbered along the chain they refer to.

B1: Polypeptide No. 31 (scFv, V domains shown)
VH: QVQLVQSGAEVKKPGSSVKVSCKASGGTFSTYAITWVRQAPGQGLEWMGGIIPIVGRANYAQKFQGRVTITADESTSTAYMELSSLRSEDTAVYYCARSGGHDLDYWGQGTLVTVSS
VL: DIQMTQSPSSLSASVGDRVTITCRASQGIGNDLGWYQQKPGKAPKLLIYGASSVQSGVPSRFSGSGSGTDFTLTISSLQPEDFATYYCQQSYSTPITFGQGTRLEIKR
notes: scFv
B2: Polypeptide No. 32 (scFv, V domains shown)
VH: EVQLLESGGGLVQPGGSLRLSCAASGFTFSSYGMHWVRQAPGKGLEWVSSISGSGDTTYYADSVKGRFTISRDNSKNTLYLQMNSLRAEDTAVYYCARDNPYGDYGGSFDYWGQGTLVTVSS
VL: EIVMTQSPATLSVSPGERATLSCRASQSVSSSYLAWYQQKPGQAPRLLIYATSTRATGIPARFSGSGSGTEFTLTISSLQSEDFAVYYCQQYGSLPLTFGQGTKVEIKR
notes: scFv
B3: Polypeptide No. 33 (scFv, V domains shown)
VH: QVQLVQSGAEVKKPGASVKVSCKASGYTFTSYYMHWVRQAPGQGLEWMGIIDPSGGSTNYAQKFQGRVTMTRDTSTSTVYMELSSLRSEDTAVYYCARDYYGSGSYYGLDYWGRGTLVTVSS
VL: DIQMTQSPSSLSASVGDRVTITCRASQGISNNLNWYQQKPGKAPKLLIYDASNLETGVPSRFSGSGSGTDFTLTISSLQPEDFATYYCQQANSFPLTFGPGTKVDIKR
notes: scFv
B4: Polypeptide No. 35 (scFv, V domains shown)
VH: QVQLVQSGAEVKKPGASVKVSCKASGYTFTDYYMHWVRQAPGQGLEWMGIINPSGGSTRYAQKFQGRVTMTRDTSTSTVYMELSSLRSEDTAVYYCARVDGRRWLRSDYWGQGTLVTVSS
VL: B1 VL with G30R, G34A, G50A, S53T, V54L, S56N, I96W, R103K, L104V
notes: scFv
B5: Polypeptide No. 36 (scFv, V domains shown)
VH: QVQLVQSGAEVKKPGASVKVSCKASGGTFSSYAISWVRQAPGQGLEWLGIISPSGRSAGYGRKFQGRVTMTRDTSTSTVYMELSSLRSEDTAVYYCARTDYGGHKWYFDLWGRGTLVTVSS
VL: DIQMTQSPSSLSASVGDRVTITCQASQGINNYLNWYQQKPGKAPKLLIYAASTLQRGVPSRFSGSGSGTDFTLTISSLQPEDFATYYCQQSYQTPLTFGGGTKVEIKR
notes: scFv
B6: Polypeptide No. 39 (scFv, V domains shown)
VH: EVQLLESGGGLVQPGGSLRLSCAASGFTFRNYGMGWVRQAPGKGLEWVSAISGSGGSTYYADSVKGRFTISRDNSKNTLYLQMNSLRAEDTAVYYCARVKFYGMDVWGQGTTVTVSS
VL: B3 VL with N32D, N34A, D50G, L96F
notes: scFv
B7: Polypeptide No. 40 (scFv, V domains shown)
VH: QVQLVQSGAEVKKPGASVKVSCKASGYTFTDYHMHWVRQAPGQGLEWMGWMSPNSGNTGYAQNFQGRVTMTRDTSTSTVYMELSSLRSEDTAVYYCARADYYGSDYVKFDYWGQGTLVTVSS
VL: DIQMTQSPSSLSASVGDRVTITCRVSQGISSYLNWYQQKPGKAPKLLIYEASTLESGVPSRFSGSGSGTDFTLTISSLQPEDFATYYCQQGYSTPPTFGQGTKVEIKR
notes: scFv
B8: Polypeptide No. 41 (scFv, V domains shown)
VH: QVQLVQSGAEVKKPGASVKVSCKASGYTFPNYGISWVRQAPGQGLEWMGWINPNSGGTKYAQRFQGRVTMTRDTSTSTVYMELSSLRSEDTAVYYCARDRDILTGYYHFDYWGQGTLVTVSS
VL: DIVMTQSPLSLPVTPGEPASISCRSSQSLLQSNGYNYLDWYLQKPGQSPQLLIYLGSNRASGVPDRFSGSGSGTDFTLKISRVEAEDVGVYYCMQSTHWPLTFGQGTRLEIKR
notes: scFv
B9: Polypeptide No. 42 (scFv, V domains shown)
VH: QVQLVQSGAEVKKPGASVKVSCKASGYTFTDYFMHWVRQAPGQGLEWMGWINPNSGNTGYAQKFQGRVTMTRDTSTSTVYMELSSLRSEDTAVYYCARLNDYGDYGGPATLDYWGQGTLVTVSS
VL: B1 VL with G30S, D32N, G34N, G50A, V54L, I96P, R103K
notes: scFv

Assays:
[1] = molecular target: T1, huCD33-R69 stably expressed on Jurkat cells (human, UniProt P20138 18-364); test: FACS on cells;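 note: fixed Jurkat cells bearing either CD33 variant, barcoded by dye, exposed to myc-tagged scFv periplasmic extracts, detected with anti-myc PE antibody and read by flow cytometry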
T1 construct: whole, on cells; >200,000 receptors per cell; also called CD33 WT; CD33^ARG69
Experimental: (§1) Jurkat cells were engineered to stably express either the huCD33-R69 or huCD33-G69 variant at >200,000 receptors per cell. Parental, huCD33-R69, and huCD33-G69 Jurkat cell lines were stained with differing levels of CellTrace Violet Cell Proliferation Kit (ThermoFisher, cat. #C34557) to barcode each cell line. Barcoded Jurkat cell lines were fixed with paraformaldehyde and incubated with myc-labeled scFv periplasmic extracts and a secondary anti-myc PE-conjugated monoclonal antibody. Appropriate positive and negative controls were used. Stained cells were analyzed by flow cytometry (CytoFLEX, Beckman Coulter, Inc.) and binding was assessed by change in PE mean fluorescence intensity (MFI) of the barcoded cell populations.

[2] = molecular target: T2, huCD33-G69 stably expressed on Jurkat cells (human, UniProt P20138 18-364); test: FACS on cells;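 note: fixed Jurkat cells bearing either CD33 variant, barcoded by dye, exposed to myc-tagged scFv periplasmic extracts, detected with anti-myc PE antibody and read by flow cytometry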
T2 construct: whole, on cells; >200,000 receptors per cell; also called CD33 Mutant; CD33 R69G
Experimental: as §1

[3] = molecular target: T3, huCD33-G69-Fc recombinant protein (human, UniProt P20138 18-259); test: BLI
T3 construct: extracellular domain; also called CD33 R69G
Experimental: (§2) Discovered scFvs were analyzed for binding to huCD33-R69-His or huCD33-G69-Fc recombinant proteins (for anti-CD33 scFvs; for CLL-1 scFvs, huCLL1-K244-Avi-Tev-His or huCLL1-Q244-Avi-Tev-His were used; for FLT3, huFLT3-T227-His or huFLT3-M227-Fc were used) using BLI on a ForteBio Octet HTX instrument. Streptavidin-coated biosensors were loaded with biotinylated anti-V5 tag monoclonal antibody for 5 min and were then quenched and blocked with 20 μM amine-PEG2-Biotin for 5 min. scFvs were captured on biosensors from scFv clone periplasmic extracts. huCD33 (or huCLL-1, or huFLT3) proteins were then associated with the captured scFvs for 2 minutes, followed by dissociation with buffer (1×HBST [10 mM HEPES pH 7.4, 150 mM NaCl, 0.05% Tween-20], 1 g/L BSA) for 5 minutes. […] Data was fitted with 1:1 Langmuir equation and off-rate values were reported.

[4] = molecular target: T4, huCD33-R69-His recombinant protein (human, UniProt P20138 18-259); test: BLI
T4 construct: extracellular domain
Experimental: as §2
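Throughout, for result: scFvs from periplasmic extracts captured on biosensors via anti-V5 antibody, exposed to recombinant huCD33 variants for 2 min, 5 min dissociation, scored as binding, no binding or ambiguous.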

T3 sequence (P20138 18-259 R69G): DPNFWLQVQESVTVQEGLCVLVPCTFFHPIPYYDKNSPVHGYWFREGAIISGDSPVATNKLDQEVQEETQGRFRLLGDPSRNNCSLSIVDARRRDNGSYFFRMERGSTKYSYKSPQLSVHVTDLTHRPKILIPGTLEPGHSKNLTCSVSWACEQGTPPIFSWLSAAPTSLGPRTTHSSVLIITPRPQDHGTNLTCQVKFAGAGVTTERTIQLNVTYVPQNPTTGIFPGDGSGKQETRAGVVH
T1 sequence (P20138 18-364): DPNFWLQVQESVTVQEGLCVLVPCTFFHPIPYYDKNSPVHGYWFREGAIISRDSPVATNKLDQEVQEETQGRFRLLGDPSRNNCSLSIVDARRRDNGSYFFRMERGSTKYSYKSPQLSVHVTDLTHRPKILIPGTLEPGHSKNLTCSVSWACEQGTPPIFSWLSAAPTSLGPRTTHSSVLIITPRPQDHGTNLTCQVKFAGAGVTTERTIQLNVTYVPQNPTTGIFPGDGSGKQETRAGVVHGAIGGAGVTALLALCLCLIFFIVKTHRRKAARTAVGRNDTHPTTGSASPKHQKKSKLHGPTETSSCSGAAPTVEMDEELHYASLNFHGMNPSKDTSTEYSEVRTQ
T4 sequence (P20138 18-259): as the sequence (P20138 18-259 R69G) above, with G52R counted along it
T2 sequence (P20138 18-364 R69G): as the sequence (P20138 18-364) above, with R52G counted along it

Row | Binder | geometric mean MFI fold change over Jurkat parental [1] [fold] | geometric mean MFI fold change over Jurkat parental [2] [fold] | binding result [3] | binding result [4]
1 | B1 | < 2 | 10 to 30 | binds | no binding
2 | B2 | < 2 | 10 to 30 | binds | no binding
3 | B3 | < 2 | > 30 | binds | no binding
4 | B4 | < 2 | 2 to 10 | binds | no binding
5 | B5 | < 2 | 2 to 10 | binds | no binding
6 | B6 | < 2 | 10 to 30 | binds | no binding
7 | B7 | < 2 | 10 to 30 | binds | no binding
8 | B8 | < 2 | 2 to 10 | binds | no binding
9 | B9 | < 2 | 10 to 30 | binds | no binding
